The test has as its target CMV pp65 peptide on HLA-A*02:01 (human). In words: CD137 up-regulation; peptide titration on the HLA-A02:01 positive B cell line; full-length, on cells. To be noted: chains Valpha:Vbeta.

B1: TCR6-2 (CMV A2/pp65 495-503-specific) (protein)
chain 1: GQQLNQSPQSMFIQEGEDVSMNCTSSSIFNTWLWYKQDPGEGPVLLIALYKAGELTSNGRLTAQFGITRKDSFLNISASIPSDVGIYFCAGPMKTSYDKVIFGPGTSLSVIP
chain 2: DAGVIQSPRHEVTEMGQEVTLRCKPISGHDYLFWYRQTMMRGLELLIYFNNNVPIDDSGMPEDRFSAKMPNASFSTLKIQPSEPRDSAVYFCASSSANYGYTFGSGTRLTVV
In the case of B1, the EC50 of peptide was 10 nM.

Source of the values: US20230041268A1.
